Where a chain is given by its changes, count along the chain named. Numbers in names are those of the source.
Assays:
[1] = target: T1, L3BR (residues 825-922) (human, UniProt P49916-3 825-922); assay: native gel or EMSA
T1 sequence (looked up): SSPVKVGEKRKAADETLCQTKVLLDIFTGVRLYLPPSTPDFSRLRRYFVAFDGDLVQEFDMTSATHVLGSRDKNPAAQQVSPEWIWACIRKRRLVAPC

[2] = target: the molecule itself; assay: SAXS
[3] = target: X1BR2-GFP (C-terminal BRCT domain of XRCC1 fused to C-terminal GFP) (human, UniProt P18887 538-633); assay: GFP-fluorescence-based competition binding assay
[4] = target: the molecule itself; assay: SEC

B1: X1BR2 L626E (residues 538-633), designated wild type (WT) in Figure 1E (domain or fragment, human, UniProt P18887 538-633, looked up)
chain: ELPDFFQGKHFFLYGEFPGDERRKLIRYVTAFNGELEDYMSDRVQFVITAQEWDPSFEEALMDNPSLAFVRPRWIYSCNEKQKLLPHQEYGVVPQA
B1: binds [1].

B2: X1BR2 F569A (on the L626E template, residues 538-633) (domain or fragment, human, UniProt P18887 538-633, looked up)
chain: B1 chain with F32A
B2: binds [1].

B3: X1BR2 Y565A (on the L626E template, residues 538-633) (domain or fragment, human, UniProt P18887 538-633, looked up)
chain: B1 chain with Y28A
B3: binds [1].

B4: X1BR2 N570A (on the L626E template, residues 538-633) (domain or fragment, human, UniProt P18887 538-633, looked up)
chain: B1 chain with N33A
B4: binds [1].

B5: phosphorylated XRCC1ΔN (XRCC1ΔN-p, residues 294-633) (domain or fragment, human, UniProt P18887 294-633, looked up)
chain: AVTGKPRGEGTEPRRPRAGPEELGKILQGVVVVLSGFQNPFRSELRDKALELGAKYRPDWTRDSTHLICAFANTPKYSQVLGLGGRIVRKEWVLDCHRMRRRLPSQRYLMAGPGSSSEEDEASHSGGSGDEAPKLPQKQPQTKTKPTQAAGPSSPQKPPTPEETKAASPVLQEDIDIEGVQSEGQDNGAEDSGDTEDELRRVAEQKEHRLPPGQEENGEDPYAGSTDENTDSEEHQEPPDLPVPELPDFFQGKHFFLYGEFPGDERRKLIRYVTAFNGELEDYMSDRVQFVITAQEWDPSFEEALMDNPSLAFVRPRWIYSCNEKQKLLPHQLYGVVPQA
modifications: phosphorylated by casein kinase II (CK2) in the region between X1BR1 and X1BR2; sites not given
B5: binds [2].

B6: MBP-L3BR^832 (C-terminal BRCT domain of DNA ligase IIIα, residues 832-922, N-terminal MBP fusion) (domain or fragment, human, UniProt P49916-3 832-922, looked up)
chain: EKRKAADETLCQTKVLLDIFTGVRLYLPPSTPDFSRLRRYFVAFDGDLVQEFDMTSATHVLGSRDKNPAAQQVSPEWIWACIRKRRLVAPC
With B6 the EC50 [3] was 1240 nM and the “stoichiometry N” value [4] was 2.

B7: L3BR^832 fused to C-terminal GFP (domain or fragment, human, UniProt P49916-3 832-922, looked up)
chain: B6 chain
In the case of B7, the “stoichiometry N” value [4] is reported as 2.

B8: L3BR^832 (untagged, residues 832-922 of DNA ligase IIIα) (domain or fragment, human, UniProt P49916-3 832-922, looked up)
chain: B6 chain
In the case of B8, the “stoichiometry N” value [2] is reported as 2.

B9: MBP-L3BR^844 (L3BR^832 lacking its 12 N-terminal residues, MBP fusion) (domain or fragment, human, UniProt P49916-3 844-922, looked up)
chain: TKVLLDIFTGVRLYLPPSTPDFSRLRRYFVAFDGDLVQEFDMTSATHVLGSRDKNPAAQQVSPEWIWACIRKRRLVAPC
With B9 the EC50 [3] was 670 nM.
